± gives the uncertainty stated by the source.

The nature of the data set: protein stability index of a GFP-peptide fusion (yeast GPS) (PSI 1-4); higher = more stable; sorted into four equal gates, so the index is relative within each strain. The method in brief: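 Yeast carrying a pooled library were grown to mid-log phase in leucine-free medium. Each library plasmid expresses Cherry and has a tiled 17-residue yeast protein peptide fused downstream of GFP. Cells were sorted into four equal gates by GFP/Cherry ratio, and plasmids from each gate were PCR-amplified, Illumina-sequenced and assigned to strains by barcode. Summing, across gates, the read frequency times the gate number gave each peptide's protein stability index.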

For NGCSGADVKGVCTEAGM [RPT6], the protein stability index by setting is: (doa10∆) 3.15 ± 0.18; (pdr5∆) 3.7 ± 0.16; (san1∆) 3.25 ± 0.11; (ubr1∆) 3.1 ± 0.11.

The sequence LKKIRAHRGIRHFWGLR [RPS18A] showed a protein stability index (doa10∆) of 3.03 ± 0.11, a protein stability index (pdr5∆) of 2.74 ± 0.078, a protein stability index (san1∆) of 2.44 ± 0.079 and a protein stability index (ubr1∆) of 2.62 ± 0.05.

In the case of ESLTFNEFQLQWGKYQT [SWI1], the protein stability index worked out at 2.86 ± 0.049 (doa10∆), 2.93 ± 0.047 (pdr5∆), 2.67 ± 0.045 (san1∆) and 2.91 ± 0.034 (ubr1∆).

With SEDSMNVQLRDVIATEP [SMD3], the protein stability index is, setting by setting: (doa10∆) 2.94 ± 0.1; (pdr5∆) 3.36 ± 0.098; (san1∆) 3.09 ± 0.065; (ubr1∆) 3.23 ± 0.039.

Consider RGTTAVLKESIVNICDI [PUP1], for which the protein stability index is 3.2 ± 0.22 (pdr5∆) and 1.79 ± 0.27 (ubr1∆).

For the sequence AEKSFKPPKNKYKVVRR [SEC65], the protein stability index stood at 2.58 ± 0.18 (doa10∆), 3 ± 0.17 (pdr5∆), 3.21 ± 0.071 (san1∆) and 3.16 ± 0.13 (ubr1∆).

Take IQTVVISLLALPHSPLW [YML031W/NDC1]: the protein stability index came out at 1.36 ± 0.076 (doa10∆), 1.58 ± 0.063 (pdr5∆), 1.36 ± 0.1 (san1∆) and 2 ± 0.049 (ubr1∆).

As for GSTSLIEGMEQRIIKEL [ARP7], the protein stability index amounted to 3.19 ± 0.12 (doa10∆), 3.23 ± 0.12 (pdr5∆), 2.98 ± 0.24 (san1∆) and 2.71 ± 0.21 (ubr1∆).

SSIVAIDWASPEYGRII [YGL100W/SEH1]: the protein stability index came out at 2.57 ± 0.13 (doa10∆), 3.16 ± 0.13 (pdr5∆), 2.82 ± 0.079 (san1∆) and 2.69 ± 0.061 (ubr1∆).

KAKSNQTQREKAPLQPN [IRR1]: the protein stability index is, setting by setting: (doa10∆) 3.07 ± 0.058; (pdr5∆) 3.24 ± 0.052; (san1∆) 3.09 ± 0.035; (ubr1∆) 3.07 ± 0.05.

FSSNERYFFWLQEKNSG [RPN13]: the protein stability index is 1.27 ± 0.048 (doa10∆), 1.65 ± 0.072 (pdr5∆), 2.18 ± 0.076 (san1∆) and 2.25 ± 0.055 (ubr1∆).

Regarding AGTEANAVSFDTTFSDF [SRB4], the protein stability index by setting is: (doa10∆) 3.03 ± 0.042; (pdr5∆) 3.06 ± 0.045; (san1∆) 3.036 ± 0.029; (ubr1∆) 3.02 ± 0.038.

Turning to FMDETAVALAASDLVLI [SNU114], the protein stability index is 2.55 ± 0.062 (doa10∆), 2.74 ± 0.076 (pdr5∆), 2.69 ± 0.11 (san1∆) and 2.21 ± 0.051 (ubr1∆).

With RKANREEKLKANKEKKK [RPL24A], the protein stability index by setting is: (doa10∆) 2.88 ± 0.074; (pdr5∆) 1.98 ± 0.066; (san1∆) 2.15 ± 0.087; (ubr1∆) 2.31 ± 0.053.

Sequence NLEFDSTNHPDYDVSKK [SRP14] yielded a protein stability index (doa10∆) of 3.15 ± 0.092, a protein stability index (pdr5∆) of 3.25 ± 0.12, a protein stability index (san1∆) of 3.2 ± 0.048 and a protein stability index (ubr1∆) of 3.15 ± 0.065.

Consider ILSSVNRTVLLKIFKIF [SRB8], for which the protein stability index (doa10∆) was 1.37 ± 0.083, the protein stability index (pdr5∆) came out at 1.42 ± 0.14, the protein stability index (san1∆) is 1.17 ± 0.16 and the protein stability index (ubr1∆) was determined as 1.13 ± 0.093.

Regarding YNILGNLGIPKIAYRGV [SSN2], the protein stability index was 2.55 ± 0.12 (doa10∆), 2.48 ± 0.12 (pdr5∆), 1.55 ± 0.25 (san1∆) and 1.89 ± 0.1 (ubr1∆).

Take RRRRLKKVEEEENAATL [RPB4]: the protein stability index runs as follows: (doa10∆) 3.17 ± 0.2; (pdr5∆) 3.75 ± 0.26.

LVQLFLWDSKELEQLVE [RPN3] displayed a protein stability index (doa10∆) of 2.64 ± 0.13, a protein stability index (pdr5∆) of 2.78 ± 0.084, a protein stability index (san1∆) of 2.08 ± 0.28 and a protein stability index (ubr1∆) of 2.85 ± 0.083.

Take PQNEKPPAYALLGSCQT [RPC25]: the protein stability index is, setting by setting: (doa10∆) 2.83 ± 0.26; (pdr5∆) 2.76 ± 0.17; (ubr1∆) 2.45 ± 0.13.

With LPNQIPGEYITTIKAIF [YMR129W/POM152], the protein stability index by setting is: (doa10∆) 2.37 ± 0.055; (pdr5∆) 2.51 ± 0.055; (san1∆) 2.78 ± 0.053; (ubr1∆) 3.11 ± 0.041.

With AHFLSLSFTPTTVIGIR [RPN2], the protein stability index reads like this: (doa10∆) 1.57 ± 0.043; (pdr5∆) 1.56 ± 0.041; (san1∆) 1.28 ± 0.083; (ubr1∆) 1.27 ± 0.031.

Consider RYDCSFCGKKTVKRGAA [RPL43A], for which the protein stability index runs as follows: (doa10∆) 2.07 ± 0.066; (pdr5∆) 2.13 ± 0.071; (san1∆) 2.21 ± 0.11; (ubr1∆) 2.12 ± 0.053.

SEHVFDYFFYFLVLYDV [NUT1] registered a protein stability index (doa10∆) of 2.12 ± 0.039, a protein stability index (pdr5∆) of 2.06 ± 0.033, a protein stability index (san1∆) of 2.26 ± 0.045 and a protein stability index (ubr1∆) of 2.36 ± 0.034.

In turn, ALYIAMMTRRVVMAMYN [RET1] gave a protein stability index (doa10∆) of 3.11 ± 0.28.

The sequence PSPKKVAIDQDKITLHD [SIR4] gave a protein stability index (doa10∆) of 2.36 ± 0.064, a protein stability index (pdr5∆) of 2.53 ± 0.064, a protein stability index (san1∆) of 2.27 ± 0.079 and a protein stability index (ubr1∆) of 2.88 ± 0.05.

In the case of QSSFAGTWSAKEAVFKS [FAS2], the protein stability index (doa10∆) turned out to be 2.98 ± 0.078, the protein stability index (pdr5∆) was found to be 3.23 ± 0.071, the protein stability index (san1∆) was 3.18 ± 0.054 and the protein stability index (ubr1∆) was 2.99 ± 0.058.

(Values after the supplement of paper PMC9732359.)
